# Measurements published in article PMC10239968, “[^18F]AlF-NOTA-ADH-1: A new PET molecular radiotracer for imaging of N-cadherin-positive tumors” (Frontiers in Oncology, 2023).
# Key:
# [1] = tested on: SW480 tumor xenografts; test: Micro-PET imaging, SW480 tumor model; assay type: in vivo, nude mice; details: SW480 tumor-bearing nude mouse model, 60 min after injecting, non-blocked
# Protocol: [^18F]AlF-NOTA-ADH-1 was evaluated by micro-PET imaging on nude mice bearing a PDX tumor, SW-480 and BxPC3 tumor xenografts. Each tumor-bearing nude mouse was injected with 3.7MBq [^18F]AlF-NOTA-ADH-1 via the tail vein. After being anesthetized with isoflurane, tumor-bearing nude mice were imaged using a micro-PET/CT scanner at 60 minutes post-injection under continuous isoflurane inhalation using a nasal mask with a connecting tube. Micro-PET/CT scanning was performed after low-dose 3D acquisition CT scanning at 10 minutes per bed. A blocking study was conducted, in which a saturating dose of unlabeled ADH-1 (20 mg/kg of mouse body weight) was intravenously administered 60 min before the intravenous injection of [^18F]AlF-NOTA-ADH-1.
# The three-dimensional volume of interest (VOI) was used to assess the standard uptake value (SUV) of selected organs. The Seimens Inveon analysis software configured with micro-PET/CT was used to delineate the region of interest along the edge of the tumor and each normal tissue on the PET image. Subsequently, the SUV of each region of interest was measured, and the tumor/non-tumor ratio (T/NT) between the tumor and normal tissue was measured.
# [2] = in vivo; parameters: species or system Kunming mice; details: mouse; for tissue uptake at 2 min / tissue uptake at 5 min / tissue uptake at 0.25 h / tissue uptake at 0.5 h / tissue uptake at 1 h / tissue uptake at 2 h: Kunming, total radioactivity
# Protocol: Thirty SPF Kunming mice weighing 18-20g were randomly divided into 6 groups (n=5). As described above, [^18F]AlF-NOTA-ADH-1 was purified and separated by HPLC analysis. Each mouse was injected with a dose of 0.74MBq (20μCi) through a caudal vein. Blood was collected from the orbit, the mice were sacrificed, and the brain, heart, lung, liver, spleen, kidney, stomach, intestine, muscle, bone and other organs were taken at 2 min, 5 min, 15 min, 30 min, 60min and 120min after injection. The radioactivity results were recorded as injected radioactivity per gram of tissue (% ID/g) corrected for background and decay.
# [3] = iv, 0.74 MBq (20 uCi) per mouse, Blood radioactive concentration
# [4] = iv, 0.74 MBq (20 uCi) per mouse, Bone uptake
# [5] = iv, 0.74 MBq (20 uCi) per mouse, Brain uptake
# [6] = iv, 0.74 MBq (20 uCi) per mouse, Intestines uptake
# [7] = iv, 0.74 MBq (20 uCi) per mouse, Muscle uptake
# [8] = iv, 0.74 MBq (20 uCi) per mouse, Skin uptake
compound,measurement,setting,value
CC(=O)N[C@H]1CSSC[C@@H](C(=O)NCCNC(=O)CN2CCN(CC(=O)O)CCN(CC(=O)O)CC2)NC(=O)[C@H](C(C)C)NC(=O)[C@H](C)NC(=O)[C@H](Cc2c[nH]cn2)NC1=O [[^18F]AlF-NOTA-ADH-1],Micro-PET T/Bone,[1],1.903±0.273
same,Micro-PET T/Lung,[1],3.359±2.998
same,Micro-PET tumor/muscle ratio,[1],1.443±0.121
same,tissue uptake at 2 min,[2]; [3],18.8 ± 1.95 %ID/g
same,tissue uptake at 5 min,[2]; [3],8.77 ± 1.37 %ID/g
same,tissue uptake at 0.25 h,[2]; [3],3.79 ± 1.19 %ID/g
same,tissue uptake at 0.5 h,[2]; [3],2.28 ± 0.81 %ID/g
same,tissue uptake at 1 h,[2]; [3],2.15 ± 0.18 %ID/g
same,tissue uptake at 2 h,[2]; [3],1.04 ± 0.36 %ID/g
same,tissue uptake at 2 min,[2]; [4],5.3 ± 0.94 %ID/g
same,tissue uptake at 5 min,[2]; [4],6.71 ± 0.62 %ID/g
same,tissue uptake at 0.25 h,[2]; [4],3.72 ± 0.29 %ID/g
same,tissue uptake at 0.5 h,[2]; [4],3.09 ± 0.26 %ID/g
same,tissue uptake at 1 h,[2]; [4],1.51 ± 0.36 %ID/g
same,tissue uptake at 2 h,[2]; [4],1.38 ± 0.73 %ID/g
same,tissue uptake at 2 min,[2]; [5],1.05 ± 0.25 %ID/g
same,tissue uptake at 5 min,[2]; [5],0.87 ± 0.3 %ID/g
same,tissue uptake at 0.25 h,[2]; [5],0.46 ± 0.1 %ID/g
same,tissue uptake at 0.5 h,[2]; [5],0.39 ± 0.1 %ID/g
same,tissue uptake at 1 h,[2]; [5],0.22 ± 0.05 %ID/g
same,tissue uptake at 2 h,[2]; [5],0.58 ± 0.68 %ID/g
same,tissue uptake at 2 min,"[2]; iv, 0.74 MBq (20 uCi) per mouse, Heart uptake",9.15 ± 0.91 %ID/g
same,tissue uptake at 2 min,[2]; [6],5.39 ± 0.84 %ID/g
same,tissue uptake at 5 min,[2]; [6],6.06 ± 1.42 %ID/g
same,tissue uptake at 0.25 h,[2]; [6],5.73 ± 0.64 %ID/g
same,tissue uptake at 0.5 h,[2]; [6],6.28 ± 0.59 %ID/g
same,tissue uptake at 1 h,[2]; [6],5.27 ± 1.09 %ID/g
same,tissue uptake at 2 h,[2]; [6],4.18 ± 0.53 %ID/g
same,tissue uptake at 2 min,[2]; [7],3.97 ± 0.56 %ID/g
same,tissue uptake at 5 min,[2]; [7],5.91 ± 1.16 %ID/g
same,tissue uptake at 0.25 h,[2]; [7],2.79 ± 0.68 %ID/g
same,tissue uptake at 0.5 h,[2]; [7],3.32 ± 1.77 %ID/g
same,tissue uptake at 1 h,[2]; [7],1.08 ± 0.21 %ID/g
same,tissue uptake at 2 h,[2]; [7],1.22 ± 0.7 %ID/g
same,tissue uptake at 2 min,[2]; [8],5.6 ± 0.85 %ID/g
same,tissue uptake at 5 min,[2]; [8],5.08 ± 2.74 %ID/g
same,tissue uptake at 0.25 h,[2]; [8],3.11 ± 1.47 %ID/g
same,tissue uptake at 0.5 h,[2]; [8],2.59 ± 0.96 %ID/g
same,tissue uptake at 1 h,[2]; [8],1.85 ± 1.48 %ID/g
same,tissue uptake at 2 h,[2]; [8],1.1 ± 0.96 %ID/g
same,tissue uptake at 5 min,"[2]; iv, 0.74 MBq, Heart uptake",7.54 ± 2.08 %ID/g
same,tissue uptake at 0.25 h,"[2]; iv, 0.74 MBq, Heart uptake",3.57 ± 0.82 %ID/g
same,tissue uptake at 0.5 h,"[2]; iv, 0.74 MBq, Heart uptake",3.64 ± 0.66 %ID/g
same,tissue uptake at 1 h,"[2]; iv, 0.74 MBq, Heart uptake",1.19 ± 0.7 %ID/g
same,tissue uptake at 2 h,"[2]; iv, 0.74 MBq, Heart uptake",1.01 ± 0.15 %ID/g
same,tissue uptake at 2 min,"[2]; iv, 0.74 MBq, Kidney uptake",24.9 ± 1.12 %ID/g
same,tissue uptake at 5 min,"[2]; iv, 0.74 MBq, Kidney uptake",36.5 ± 2 %ID/g
same,tissue uptake at 0.25 h,"[2]; iv, 0.74 MBq, Kidney uptake",22.1 ± 1.43 %ID/g
same,tissue uptake at 0.5 h,"[2]; iv, 0.74 MBq, Kidney uptake",25.7 ± 1.17 %ID/g
same,tissue uptake at 1 h,"[2]; iv, 0.74 MBq, Kidney uptake",22.2 ± 1.92 %ID/g
same,tissue uptake at 2 h,"[2]; iv, 0.74 MBq, Kidney uptake",15.2 ± 0.96 %ID/g
same,tissue uptake at 2 min,"[2]; iv, 0.74 MBq, Liver uptake",8.01 ± 1.26 %ID/g
same,tissue uptake at 5 min,"[2]; iv, 0.74 MBq, Liver uptake",7.09 ± 2.03 %ID/g
same,tissue uptake at 0.25 h,"[2]; iv, 0.74 MBq, Liver uptake",14.8 ± 1.11 %ID/g
same,tissue uptake at 0.5 h,"[2]; iv, 0.74 MBq, Liver uptake",16.1 ± 2.34 %ID/g
same,tissue uptake at 1 h,"[2]; iv, 0.74 MBq, Liver uptake",21.6 ± 3.53 %ID/g
same,tissue uptake at 2 h,"[2]; iv, 0.74 MBq, Liver uptake",13.7 ± 2.35 %ID/g
same,tissue uptake at 2 min,"[2]; iv, 0.74 MBq, Lung uptake",6.26 ± 1.29 %ID/g
same,tissue uptake at 5 min,"[2]; iv, 0.74 MBq, Lung uptake",4.74 ± 1.69 %ID/g
same,tissue uptake at 0.25 h,"[2]; iv, 0.74 MBq, Lung uptake",3.05 ± 0.4 %ID/g
same,tissue uptake at 0.5 h,"[2]; iv, 0.74 MBq, Lung uptake",2.15 ± 0.27 %ID/g
same,tissue uptake at 1 h,"[2]; iv, 0.74 MBq, Lung uptake",2.19 ± 0.42 %ID/g
same,tissue uptake at 2 h,"[2]; iv, 0.74 MBq, Lung uptake",1.62 ± 0.35 %ID/g
same,tissue uptake at 2 min,"[2]; iv, 0.74 MBq, Spleen uptake",3.84 ± 1.47 %ID/g
same,tissue uptake at 5 min,"[2]; iv, 0.74 MBq, Spleen uptake",5.09 ± 1.29 %ID/g
same,tissue uptake at 0.25 h,"[2]; iv, 0.74 MBq, Spleen uptake",3.08 ± 0.55 %ID/g
same,tissue uptake at 0.5 h,"[2]; iv, 0.74 MBq, Spleen uptake",2.66 ± 0.22 %ID/g
same,tissue uptake at 1 h,"[2]; iv, 0.74 MBq, Spleen uptake",1.81 ± 0.57 %ID/g
same,tissue uptake at 2 h,"[2]; iv, 0.74 MBq, Spleen uptake",1.24 ± 0.3 %ID/g
same,tissue uptake at 2 min,"[2]; iv, 0.74 MBq, Stomach uptake",5.63 ± 1.98 %ID/g
same,tissue uptake at 5 min,"[2]; iv, 0.74 MBq, Stomach uptake",7.27 ± 1.89 %ID/g
same,tissue uptake at 0.25 h,"[2]; iv, 0.74 MBq, Stomach uptake",4.26 ± 0.55 %ID/g
same,tissue uptake at 0.5 h,"[2]; iv, 0.74 MBq, Stomach uptake",4.78 ± 0.98 %ID/g
same,tissue uptake at 1 h,"[2]; iv, 0.74 MBq, Stomach uptake",2.32 ± 0.56 %ID/g
same,tissue uptake at 2 h,"[2]; iv, 0.74 MBq, Stomach uptake",1.55 ± 0.2 %ID/g
same,In vivo defluorination (bone uptake),[2],no obvious in vivo defluorination
same,Blood clearance,[2]; iv,rapid blood clearance
